Assay results as given in PMC5643063, “Viral infection upregulates myostatin promoter activity in orange-spotted grouper (Epinephelus coioides)”.

Biological target: T1, MyoD (Epinephelus coioides (orange-spotted …, UniProt D9IV55 1-269))
T1 sequence: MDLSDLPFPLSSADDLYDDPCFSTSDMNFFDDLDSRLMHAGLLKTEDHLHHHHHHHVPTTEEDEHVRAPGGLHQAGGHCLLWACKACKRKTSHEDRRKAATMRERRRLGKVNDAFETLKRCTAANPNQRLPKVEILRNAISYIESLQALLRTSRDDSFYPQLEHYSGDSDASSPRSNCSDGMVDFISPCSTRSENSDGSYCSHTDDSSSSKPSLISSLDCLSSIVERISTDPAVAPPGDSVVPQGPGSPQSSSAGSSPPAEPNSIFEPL
Experiment: EMSA; 2 ug MyoD, increasing probe, poly[d(I-C)] 0.1 ng, 5 mM Mg2+; 20 mM HEPES pH 7.9, 50 mM KCl, 5 mM MgCl2, 0.5 mM EDTA, 5 mM DTT, 5% glycerol, 0.1 ng poly[d(I-C)], 30 min room temperature; 6.5% native PAGE 0.5X TBE
Details: protein: recombinant; tags: C-terminal pET-29a His tag likely (NdeI/XhoI primers, no stop codon); chain copies: 2; label: Cy3; blunt

B1: E-box E6 probe (E6F/E6R) (dsDNA)
DNA 1: CTGTATGTGGATCATTTGTGTCTTTGGTGG
DNA 2: CCACCAAAGACACAAATGATCCACATACAG
- binding result: binds
